Source: US20260201058A1 (SICHUAN HUIYU PHARMACEUTICAL, published 2026)
Numbering of substitutions follows the chain as printed. Read-outs that look alike come from different tables or passages of the source.

How the values were obtained:
[1] = target: T1, monkey PD-L1 protein (Kactus Biosystems, PDL-CM210) (monkey); test: Carterra HC30M chip, antibody captured via anti-DYKDDDDK, PD-L1 as analyte
T1 construct: Bought protein; also called Monkey PDL1-Fc
Protocol: (§1) The anti-[…] antibody was bound to the HC30M chip via amino coupling, then […] of humanized PD-L1 single-domain antibody was captured. After the baseline was stabilized, gradient diluted human PD-L1 protein (ACRO, PD1-H5258) and monkey PD-L1 protein (Kactus Biosystems, PDL-CM210) (starting from 100 nM, gradient dilution) were flowed over the chip from low to high concentrations, with a binding time of 8 minutes and a dissociation time of 20 minutes. Kinetic constants were obtained by fitting with Carteria software.

[2] = target: T2, human PD-L1 protein (ACRO, PD1-H5258) (human, UniProt Q9NZQ7 19-238); test: as above
T2 construct: Bought protein; also called Human PDL1-Fc
T2 sequence (Q9NZQ7 19-238): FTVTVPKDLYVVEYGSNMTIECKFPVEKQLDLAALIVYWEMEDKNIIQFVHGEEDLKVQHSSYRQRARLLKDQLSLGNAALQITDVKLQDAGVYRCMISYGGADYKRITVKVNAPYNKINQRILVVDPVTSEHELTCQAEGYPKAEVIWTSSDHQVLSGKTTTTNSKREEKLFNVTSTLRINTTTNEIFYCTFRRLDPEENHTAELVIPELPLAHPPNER
Protocol: as §1

[3] = target: T3, cynoMSLN-Fc (Kactus Biosystems, MSL-CM280) (cyno (monkey)); test: Carterra HC30M chip, antibody captured via anti-DYKDDDDK, antigen as analyte
T3 construct: Bought protein; also called monkey MSLN
Protocol: (§2) The anti-[…] antibody was bound to the HC30M chip via amino coupling, and then 2 μg/mL of MSLN single-domain antibody was captured. After the baseline was stabilized, gradient diluted huMSLN-Fc (Kactus Biosystems, MSL-HM280) and cynoMSLN-Fc (Kactus Biosystems, MSL-CM280) (starting from 100 nM, gradient dilution) were flowed through the chip from low to high concentrations, respectively, with a binding time of 8 minutes and a dissociation time of 20 minutes. Kinetic constants were obtained by fitting with Carteria software.

[4] = target: T4, hFc-tagged human MSLN recombinant protein (huMSLN-hFc, Kactus Biosystems, MSL-HM280) (human, UniProt Q13421 296-580); test: as above
T4 construct: Bought protein; also called huMSLN-Fc; human MSLN-Fc
T4 sequence (Q13421 other isoform, or with tags, fused parts or gaps): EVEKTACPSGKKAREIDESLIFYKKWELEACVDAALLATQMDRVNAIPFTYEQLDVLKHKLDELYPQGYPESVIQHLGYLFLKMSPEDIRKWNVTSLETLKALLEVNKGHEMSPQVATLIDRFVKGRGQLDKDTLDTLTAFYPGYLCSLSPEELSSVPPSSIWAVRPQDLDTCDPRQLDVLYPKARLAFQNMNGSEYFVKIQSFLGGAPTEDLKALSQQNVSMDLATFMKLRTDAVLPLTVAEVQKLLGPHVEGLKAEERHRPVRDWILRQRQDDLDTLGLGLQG
Protocol: as §2

[5] = target: T5, mouse PD-L1 protein (ACRO, PD1-M5251) (mouse, UniProt Q9EP73 19-238); test: Carterra HC30M chip, antibody captured via anti-DYKDDDDK, PD-L1 as analyte
T5 construct: Bought protein; also called Mouse PDL1-Fc
T5 sequence (Q9EP73 19-238): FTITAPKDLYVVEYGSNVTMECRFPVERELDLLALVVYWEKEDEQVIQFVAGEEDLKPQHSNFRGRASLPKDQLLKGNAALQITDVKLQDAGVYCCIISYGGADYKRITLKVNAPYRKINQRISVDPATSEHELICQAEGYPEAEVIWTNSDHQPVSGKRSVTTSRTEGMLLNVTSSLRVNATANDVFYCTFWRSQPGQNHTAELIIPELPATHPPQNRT
Protocol: (§3) The anti-[…] antibody was bound to the HC30M chip via amino coupling, then 2 μg/mL of humanized PD-L1 single-domain antibody was captured. […] Kinetic constants were obtained by fitting with Carteria software.

[6] = target: T1, monkey PD-L1 protein (Kactus …); test: as above; remark: listed apart in the source
Protocol: as §3

[7] = target: T2, human PD-L1 protein (ACRO, PD1-H5258); test: as above; remark: listed apart in the source
Protocol: as §3

B1: 7B11_huGS_HM1 (Fc fusion)
chain: EVQLVESGGGLVQPGGSLRLSCAASGGTFLTYGMGWFRQAPGKGLEFVAAINWSGSMTNYADSVKGRFTISRDNAKNTVYLQMNSLRAEDTAVYYCAAKTGAVAYIQKNEYDYWGQGTLVTVSSGGGGSGGGGSDKTHTCPPCPAPEAAGAPSVFLFPPKPKDTLMISRTPEVTCVVVDVSHEDPEVKFNWYVDGVEVHNAKTKPREEQYNSTYRVVSVLTVLHQDWLNGKEYKCAVSNKALPAPIEKTISKAKGQPREPQVYTLPPSRDELTKNQVSLTCLVKGFYPSDIAVEWESNGQPENNYKTTPPVLDSDGSFFLYSKLTVDKSRWQQGNVFSCSVMHEALHNHYTQKSLSLSP
notes: Humanized VHH-Fc antibody
Kd [1]: 0.0252 nM | Kd [2]: 0.0294 nM

B2: 7B11_huBSM_HM2 (Fc fusion)
chain: B1 chain with P14A, G44E, L45R, N84R, R87T, A88S
notes: Humanized VHH-Fc antibody
Kd [1]: 0.0307 nM | Kd [2]: 0.0362 nM

B3: 7B11_huGS1 (Fc fusion)
chain: B1 chain with F37V, F47W
notes: Humanized VHH-Fc antibody
Kd [1]: 0.0588 nM | Kd [2]: 0.0815 nM

B4: 7B11_huBSM1 (Fc fusion)
chain: B1 chain with P14A, G44E, L45R, E46V, N84R, R87T, A88S, L119Q
notes: Humanized VHH-Fc antibody
Kd [1]: 0.0294 nM | Kd [2]: 0.0372 nM

B5: 7B11_huBSM_HM1 (Fc fusion)
chain: B1 chain with P14A, E46V, N84R, R87T, A88S, L119Q
notes: Humanized VHH-Fc antibody
Kd [1]: 0.0347 nM | Kd [2]: 0.0382 nM

B6: 3C6 hu-5 (Fc fusion)
chain: EVQLVESGGGLIQPGGSLRLSCAASGNIGSIRHMGWHRQAPGKERELVSTITTVGTTYYANFVKGRFTISRDNSKNTLYLQMNSLRAEDTAVYYCRATAHPTDYWGQGTLVTVSSGGGGSGGGGSDKTHTCPPCPAPEAAGAPSVFLFPPKPKDTLMISRTPEVTCVVVDVSHEDPEVKFNWYVDGVEVHNAKTKPREEQYNSTYRVVSVLTVLHQDWLNGKEYKCAVSNKALPAPIEKTISKAKGQPREPQVYTLPPSRDELTKNQVSLTCLVKGFYPSDIAVEWESNGQPENNYKTTPPVLDSDGSFFLYSKLTVDKSRWQQGNVFSCSVMHEALHNHYTQKSLSLSP
notes: Humanized VHH-Fc antibody: VHH, linker, human IgG1 Fc
Kd [3]: 1.66 nM | koff [3]: 0.000914 s⁻¹ | kon [3]: 551000 M⁻¹ s⁻¹ | Kd [4]: 2.26 nM | koff [4]: 0.00175 s⁻¹ | kon [4]: 772000 M⁻¹ s⁻¹

B7: 3C6 hu-1 (Fc fusion)
chain: B6 chain with H37V, E44G, R45L, L47W
notes: as for B6
Kd [3]: 3.67 nM | koff [3]: 0.00151 s⁻¹ | kon [3]: 412000 M⁻¹ s⁻¹ | Kd [4]: 2.69 nM | koff [4]: 0.00187 s⁻¹ | kon [4]: 695000 M⁻¹ s⁻¹

B8: 3C6 hu-6 (Fc fusion)
chain: B6 chain with S49A
notes: as for B6
Kd [3]: 1.78 nM | koff [3]: 0.00115 s⁻¹ | kon [3]: 644000 M⁻¹ s⁻¹ | Kd [4]: 2.25 nM | koff [4]: 0.00185 s⁻¹ | kon [4]: 820000 M⁻¹ s⁻¹

B9: 3C6 hu-8 (Fc fusion)
chain: B6 chain with H37V, S49A
notes: as for B6
Kd [3]: 17.3 nM | koff [3]: 0.0165 s⁻¹ | kon [3]: 956000 M⁻¹ s⁻¹ | Kd [4]: 12 nM | koff [4]: 0.0315 s⁻¹ | kon [4]: 2.63e+06 M⁻¹ s⁻¹

B10: 3C6 hu-7 (Fc fusion)
chain: B6 chain with L47W, S49A
notes: as for B6
Kd [3]: 4.79 nM | koff [3]: 0.00244 s⁻¹ | kon [3]: 510000 M⁻¹ s⁻¹ | Kd [4]: 4.94 nM | koff [4]: 0.00277 s⁻¹ | kon [4]: 560000 M⁻¹ s⁻¹

B11: 3C6 hu-2 (Fc fusion)
chain: B6 chain with E44G, R45L
notes: as for B6
Kd [3]: 11.4 nM | koff [3]: 0.00426 s⁻¹ | kon [3]: 374000 M⁻¹ s⁻¹ | Kd [4]: 13.5 nM | koff [4]: 0.00732 s⁻¹ | kon [4]: 540000 M⁻¹ s⁻¹

B12: 3C6 hu-3 (Fc fusion)
chain: B6 chain with R45L
notes: as for B6
Kd [3]: 2.74 nM | koff [3]: 0.00125 s⁻¹ | kon [3]: 455000 M⁻¹ s⁻¹ | Kd [4]: 3.56 nM | koff [4]: 0.00218 s⁻¹ | kon [4]: 611000 M⁻¹ s⁻¹

B13: 3C6 hu-4 (Fc fusion)
chain: B6 chain with E44G
notes: as for B6
Kd [3]: 5.58 nM | koff [3]: 0.00285 s⁻¹ | kon [3]: 511000 M⁻¹ s⁻¹ | Kd [4]: 4.89 nM | koff [4]: 0.00471 s⁻¹ | kon [4]: 963000 M⁻¹ s⁻¹

B14: alpaca nanobody 3C6 (VHH)
VHH: EVQLVESGGGLVQAGESLRLSCAVSGNIGSIRHMGWHRQDPGKERELVATITTVGTTYYANFVKGRFTISRDNAKNTVYLQMNSLKPEDTGVYYCRATAHPTDYWGQGTQVTVSS
notes: also called anti-MSLN nanobody 3C6
Kd [3]: 1.04 nM | koff [3]: 4.69e-05 s⁻¹ | kon [3]: 45300 M⁻¹ s⁻¹ | Kd [4]: 5.66 nM | koff [4]: 0.000304 s⁻¹ | kon [4]: 53600 M⁻¹ s⁻¹

B15: 4A7 hu-5 (Fc fusion)
chain: EVQLLESGGGLVQPGGSLRLSCAASGRTFSTNVMGWFRQAPGKGLEFVSAISRAGSTYSADSVKGRFTISRDNSKNTLYLQMNSLRAEDTAVYYCAAGSSPTAIFGKSGMDYWGQGTQVTVSSGGGGSGGGGSDKTHTCPPCPAPEAAGAPSVFLFPPKPKDTLMISRTPEVTCVVVDVSHEDPEVKFNWYVDGVEVHNAKTKPREEQYNSTYRVVSVLTVLHQDWLNGKEYKCAVSNKALPAPIEKTISKAKGQPREPQVYTLPPSRDELTKNQVSLTCLVKGFYPSDIAVEWESNGQPENNYKTTPPVLDSDGSFFLYSKLTVDKSRWQQGNVFSCSVMHEALHNHYTQKSLSLSP
notes: Humanized VHH-Fc antibody
Kd [5]: 9.72 nM | Kd [6]: 94.3 nM | Kd [7]: 141 nM

B16: 4A7 hu-13 (Fc fusion)
chain: B15 chain with T31S, N32Y
notes: Humanized VHH-Fc antibody
Kd [5]: 10.7 nM | Kd [6]: 72.8 nM | Kd [7]: 58.7 nM

B17: 4A7 hu-16 (Fc fusion)
chain: B15 chain with T31S, N32Y, G44E, L45R
notes: Humanized VHH-Fc antibody
Kd [5]: 9.82 nM | Kd [6]: 75.3 nM | Kd [7]: 45.1 nM

B18: 4A7 hu-12 (Fc fusion)
chain: B15 chain with T31S, N32Y, F37V
notes: Humanized VHH-Fc antibody
Kd [5]: 19.5 nM | Kd [6]: 94.5 nM | Kd [7]: 79 nM

B19: 4A7 hu-2 (Fc fusion)
chain: B15 chain with F37V, F47W
notes: Humanized VHH-Fc antibody
Kd [5]: 408 nM | Kd [6]: 367 nM

B20: 4A7 hu-11 (Fc fusion)
chain: B15 chain with T31S, N32Y, F47W
notes: Humanized VHH-Fc antibody
Kd [5]: 154 nM | Kd [6]: 828 nM | Kd [7]: 796 nM

B21: 4A7 hu-9 (Fc fusion)
chain: B15 chain with T31S, N32Y, G35S, F37V, F47W, S59Y
notes: Humanized VHH-Fc antibody
Kd [5]: 146 nM | Kd [6]: 609 nM | Kd [7]: 652 nM

B22: 4A7 hu-3 (Fc fusion)
chain: B15 chain with F47W
notes: Humanized VHH-Fc antibody
Kd [5]: 122 nM | Kd [6]: 599 nM | Kd [7]: 1630 nM

B23: 4A7 hu-1 (Fc fusion)
chain: B15 chain with G35S, F37V, F47W, S59Y
notes: Humanized VHH-Fc antibody
Kd [5]: 143 nM | Kd [6]: 1320 nM

B24: 4A7 hu-7 (Fc fusion)
chain: B15 chain with L45R
notes: Humanized VHH-Fc antibody
Kd [5]: 9.76 nM | Kd [6]: 61.7 nM | Kd [7]: 127 nM

B25: 4A7 hu-15 (Fc fusion)
chain: B15 chain with T31S, N32Y, L45R
notes: Humanized VHH-Fc antibody
Kd [5]: 9.97 nM | Kd [6]: 60.7 nM | Kd [7]: 54.9 nM

B26: 4A7 hu-14 (Fc fusion)
chain: B15 chain with P14A, T31S, N32Y
notes: Humanized VHH-Fc antibody
Kd [5]: 9.7 nM | Kd [6]: 76.5 nM | Kd [7]: 60.9 nM

B27: 4A7 hu-6 (Fc fusion)
chain: B15 chain with P14A
notes: Humanized VHH-Fc antibody
Kd [5]: 9.59 nM | Kd [6]: 99 nM | Kd [7]: 136 nM

B28: 4A7 hu-8 (Fc fusion)
chain: B15 chain with G44E, L45R
notes: Humanized VHH-Fc antibody
Kd [5]: 10.4 nM | Kd [6]: 57.5 nM | Kd [7]: 92.7 nM

B29: 4A7 hu-4 (Fc fusion)
chain: B15 chain with F37V
notes: Humanized VHH-Fc antibody
Kd [5]: 21 nM | Kd [6]: 112 nM | Kd [7]: 175 nM

B30: 4A7 hu-10 (Fc fusion)
chain: B15 chain with T31S, N32Y, F37V, F47W
notes: Humanized VHH-Fc antibody
Kd [5]: 197 nM | Kd [6]: 622 nM | Kd [7]: 805 nM
